This is an account of results in patent US11160876B2, “Methods and compositions for targeting t-cell cancers” (Mayo Foundation for Medical Education and Research, priority 2016, dated 2021).

The target of this assay is Abraxane (Homo sapiens, UniProt P02768). Nature of the assay: Bio-layer interferometry (BLItz) binding affinity of OKT3 and Abraxane. The protocol: To understand the characteristics of the nanoparticles formed when binding OKT3 to Abraxane, the binding affinity of the complex was determined by a Bio-layer interferometry (BLItz) assay, which is an optical technology that uses interference of white light reflection to determine binding affinities of 2 proteins
In a BLItz assay, if the 2 proteins bind, the reflected light changes wavelength in a manner that correlates to the binding affinity of the 2 proteins. Here biotinylated OKT3 at 100 ug/ml was immobilized on a streptavidin-containing probe and exposed to Abraxane at 2 concentrations-500 ug/ml (Run 2) and 1000 ug/ml (Run 3)
In the case of the anti-human CD3 antibody (OKT3) and Abraxane, biotinylated OKT3 at 100 ug/ml was immobilized on a streptavidin-containing probe. The OKT3 bearing probe was then immersed in Abraxane at 2 concentrations, 500 ug/ml and 1000 ug/ml (Run 2 and Run 3). […] The association and dissociation constants on the proteins were calculated by the BLItz software.
For orientation: Biolayer interferometry detects binding as a change in optical thickness at a sensor tip.

The Kd is the equilibrium constant for the complex coming apart. Turning to muromonab-CD3 [OKT3], under “OKT3 bearing probe immersed in Abraxane at 500 ug/ml and 1000 ug/ml (Run 2 and Run 3)”, the “binding of Abraxane to immobilized OKT3” value is recorded as “concentration dependent manner”. The Kd (biotinylated OKT3 at 100 ug/ml immobilized on streptavidin-containing probe, Abraxane at 500 ug/ml and 1000 ug/ml, calculated by BLItz software, read-out: dissociation constant (Kd) of OKT3 and Abraxane) was 2.25 nM.
